Reference: patent US20180196058A1

Biological target: Recombinant human IFN-gamma (eBioscience) (human) (UniProt P01579)
Assay: sandwich on beads, LC MS/MS of released iCOREs; IFN-gamma iCORE peak against the peak of the iCORE on the anti-TNF-alpha detection antibody

Recombinant human IFN-gamma (eBioscience) (human), sequence (P01579 24-166 limits assumed): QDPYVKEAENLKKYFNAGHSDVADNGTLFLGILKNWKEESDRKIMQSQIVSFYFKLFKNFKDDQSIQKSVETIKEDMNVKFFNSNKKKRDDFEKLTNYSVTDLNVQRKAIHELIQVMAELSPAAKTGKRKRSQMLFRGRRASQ

## iCORE-labeled detection antibody against human IFN-gamma, clone 4S.B3 (eBioscience)
  signal to noise: 10
